According to publication PMC11488100, “PET imaging of CXCR4 expression using [^18F]AlF-NOTA-QHY-04 for hematologic malignancy and solid tumors” (Theranostics, 2024):
Bridge positions count the residues as written; N and C are the ends. Square brackets hold non-standard residues; d marks the D form. Peptide text beside a SMILES is read from it. * marks the point of attachment. NOTA = O=C(O)CN1CCN(CC(=O)O)CCN(CC(=O)*)CC1; 2Nal = N[C@@H](Cc1ccc2ccccc2c1)C(=O)O; Pen = CC(C)(S)[C@H](N)C(=O)O; 4Amb = NCc1ccc(C(=O)O)cc1; Ahx = NCCCCCC(=O)O

Assays:
[1] = assay type: in vitro ADME, human
Method: The in vitro and in vivo stability of [^18F]AlF-NOTA-QHY-04 were evaluated by radio-HPLC to examine the RCP after different incubation periods. The binding affinity of the unlabeled precursor to CXCR4 was measured using the biolayer interferometry Octet Red96 system (PALL ForteBio, USA). The details are supplied in the supplemental materials.
Synthesis of [18F]AlF-NOTA-QHY-04
Briefly, NOTA-QHY-04 was radiolabeled with [18F]F-, following procedures. 10-20 […]
GBq [18F]F− produced by medical cyclotron (MINITRACE Cyclotron, GE, USA) was […]
captured with a QMA SepPak light cartridge (Waters Corporation, USA) and then eluted […]
with 300-500 μL saline (0.9% NaCl). Then, the saline containing [18F]F− was added to […]
The partition coefficient (logD) of [18F]AlF-NOTA-QHY-04 was determined in a […]
from each phase were measured for radioactivity using a γ-counter. […]
repeated three times to ensure the accuracy of the results. The logD was calculated by […]
dividing the average radioactivity in the 1 -octanol layer by that in the PBS layer, and the […]
human serum albumin solution were evaluated by radio-HPLC to examine the radiochemical purity after different incubation periods. For the saline study, 200 μL of [18F]AlF-NOTA-QHY-04 (0.74–3.70 MBq) was incubated at 37°C with 800 μL of saline for 1 h, 3 h and 6 h respectively, and then directly evaluated by radio -HPLC. […]

[2] = parameters: species or system mice; conditions: mouse, in vivo
Method: The xenografted mice were injected with [^18F]AlF-NOTA-QHY-04 (3.70 ± 0.74 MBq) in about 150 μL saline via the tail vein. All the PET scans were performed with micro-PET/CT (IRIS PET/CT, Inviscan, France) and the radioactivity were expressed as %ID/mL. Detailed procedures for dynamic, static imaging and blocking studies are provided in the supplemental materials. Biodistribution studies were conducted using mice with xenografted A549/CXCR4 tumors with and without blocking (n = 3). The mice were sacrificed immediately after static PET/CT 1 h post injection (p.i.), then the tumors and organs were quickly collected, weighed and counted for radioactivity by a γ-counter. The γ-counter activity readings were background- and decay-corrected and represented as the percentage of injected dose per gram of tissue (%ID/g).

SMILES: C[C@H](NC(=O)[C@H](CCCNC(=N)N)NC(=O)CCCCCNC(=O)c1ccc(CNC(=O)CN2CCN(CC(=O)O)CCN(CC(=O)O)CC2)cc1)C(=O)N[C@@H]1CSSC(C)(C)[C@@H](C(=O)O)NC(=O)[C@H](Cc2c[nH]cn2)NC(=O)[C@H](Cc2ccc3ccccc3c2)NC(=O)[C@H](CCCNC(=N)N)NC1=O [[^18F]AlF-NOTA-QHY-04] ({NOTA-4Amb-Ahx}-RA[dC]R[2Nal]H[Pen]-OH; disulfide 3-7)
- radiochemical purity after incubation in 5% human serum albumin solution [1]: above 95%
- Tumor-to-organ ratio T/Blood [2]: 3.63 ± 0.56
- Tumor-to-organ ratio T/Heart [2]: 7.77 ± 0.60
- Tumor-to-organ ratio T/Kidney [2]: 0.23 ± 0.05
- Tumor-to-organ ratio T/Liver [2]: 1.84 ± 0.17
- Tumor-to-organ ratio T/Muscle [2]: 10.94 ± 5.33
